Key:
human serum albumin [1] = target: T1, human serum albumin (human, UniProt P02768 25-609); test: SPR, Biacore 3000, HSA on CM5 chip, pH5 against pH7
T1 construct: also called HSA
Method: (§1) In brief, HSA and cynoSA were amine-coupled to a separate CM5 sensor chip at a density of respectively 1800RU and 1900RU. […] The three buffers used contained 50 mM phosphate, 150 mM NaCl and 0.005% surfactant P and were adjusted to either pH5, pH7 or pH8. Samples were injected at a flow-rate of 45 μL/min, association and dissociation were monitored during 120 sec and 300 sec. Binding curves were subsequently used to calculate the KD, association—and dissociation-rate constants with the BiaEvaluation software.

[2] = target: T2, cynomolgus monkey serum albumin (cynomolgus monkey, UniProt A2V9Z4 25-608); test: SPR, Biacore 3000, cynoSA on CM5 chip, pH5 against pH7
T2 construct: amine-coupled to a CM5 chip; also called CSA; cynoSA
T2 sequence (A2V9Z4 25-608 limits assumed): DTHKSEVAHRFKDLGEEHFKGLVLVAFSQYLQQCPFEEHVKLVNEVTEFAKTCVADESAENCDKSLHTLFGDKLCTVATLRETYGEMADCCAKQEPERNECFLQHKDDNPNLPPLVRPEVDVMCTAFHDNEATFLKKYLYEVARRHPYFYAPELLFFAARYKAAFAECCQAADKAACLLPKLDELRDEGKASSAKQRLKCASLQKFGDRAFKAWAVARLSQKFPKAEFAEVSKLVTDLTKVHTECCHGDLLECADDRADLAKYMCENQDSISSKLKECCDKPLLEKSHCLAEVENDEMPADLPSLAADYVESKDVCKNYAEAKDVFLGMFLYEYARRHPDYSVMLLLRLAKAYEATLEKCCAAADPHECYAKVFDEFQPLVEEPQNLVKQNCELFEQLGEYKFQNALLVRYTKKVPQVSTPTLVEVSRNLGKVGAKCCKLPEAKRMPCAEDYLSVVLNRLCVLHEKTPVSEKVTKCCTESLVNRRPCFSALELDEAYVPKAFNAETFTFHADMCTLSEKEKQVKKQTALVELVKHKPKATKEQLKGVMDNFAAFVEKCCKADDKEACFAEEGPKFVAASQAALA
Method: as §1

von Willebrand factor = target: T3, von Willebrand factor (human, UniProt P04275 764-2813); test: inhibition ELISA: ristocetin-induced binding of plasma vWF to fixed human platelets (glycoprotein Ib), bound vWF detected with anti-VWF-HRP
T3 construct: vWF of the human plasma in which the compounds were diluted; multimeric; also called vWF; VWF

human serum albumin [3] = target: T1, human serum albumin; test: X-ray co-crystal structure and in silico modelling
Method: The crystal structure was determined as follows: the purified proteins were used in crystallization trials employing both, a standard screen of approximately 1200 different conditions, as well as crystallization conditions identified using literature data. […] These conditions were also refined by systematically varying pH or precipitant concentrations. Crystals were obtained via the method of co-crystallization.
Crystals have been flash-frozen and measured at a temperature of 100K. The X-ray diffraction have been collected at the SWISS LIGHT SOURCE (SLS, Villigen, Switzerland) using cryogenic conditions. Data were processed using the programs XDS and XSCALE. The phase information necessary to determine and analyze the structure was obtained by molecular replacement. Subsequent model building and refinement was performed with the software packages CCP4 and COOT. The peptide parameterization was carried out with the program [sequence].

fold decrease of affinity at pH5 (human serum albumin [1])	fold decrease of affinity at pH5 [2]	IC50 (read off the curve) (von Willebrand factor)	binding result (human serum albumin [3])	Binder
~10 fold	~10 fold	~10 nM		12A2 sv1-AAA-12A2 sv1-9GS-59C2 (VHH, bivalent anti-vWF Nanobody with one C-terminal 59C2 peptide; also called vWF-0055; vWF 0055) DVQLVESGGGLVQPGGSLRLSCAASGRTFSYNPMGWFRQAPGKGRELVAAISRTGGSTYYPESVEGRFTISRDNAKRTVYLQMNSLRAEDTAVYYCAAAGVRAEQGRVRTLPSEYTFWGQGTQVTVSSAAAEVQLVESGGGLVQPGGSLRLSCAASGRTFSYNPMGWFRQAPGKGRELVAAISRTGGSTYYPESVEGRFTISRDNAKRTVYLQMNSLRAEDTAVYYCAAAGVRAEQGRVRTLPSEYTFWGQGTQVTVSSGGGGSGGGSRDWDFDVFGGGTPVGG
			binds	AAARYWDYDVFGGGTPVGGAAA (56E4 with one additional N-terminal and three C-terminal alanines; used for the co-crystal with HSA; also called peptide based on EXP56E4) [peptide of SEQ ID NO: 143]
